In US20110045489A1, “Polymerases for Incorporating Modified Nucleotides” (NEW ENGLAND BIOLABS, INC., priority 2008, published 2011):

Legend:
3′-O-azidomethyl-dCTP = experiment: Titration assay, incorporation of 3′-O-azidomethyl-dCTP; format: biochemical; settings: for 3′-O-azidomethyl-dCTP incorporation / termination of synthesis: 72° C. (9° N) or 37° C.
Protocol: Reactions were also performed in the absence of terminators to ensure that synthesis by each DNA polymerase was sufficient to extend primers without premature termination (“dNTP” lanes). Reactions with Therminator™ (NEB, Inc., Ipswich, Mass.) and 9° N exo-L408P/Y409A/S411T DNA polymerase (SEQ ID NO:6) were incubated at 72° C. for 30 minutes. Reactions with E. coli Polymerase I (pol I) (NEB, Inc., Ipswich, Mass.), Sequenase™, (USB, Inc., Cleveland, Ohio), Mma exo- and Mma exo-L417P/Y418A/S420T were incubated at 37° C. for 30 minutes. Each band corresponds to a DNA fragment terminated by a 3′-azido-dCMP. Using a titration assay as described in Gardner and Jack (2002), the relative 3′-azido-dCTP incorporation efficiency was determined for a series of DNA polymerases.
Incorporation of 3′-O-azidomethyl-dCTP by various DNA polymerases was measured using the titration assay as described in Example 1. For each reaction, a ratio of either 10:1 or 1:1 3′-O-azidomethyl-dCTP:dNTP was used to generate a termination pattern. Each band corresponded to a DNA fragment terminated by a 3′-azido-dCMP. A control reaction lacking terminator (dNTP) which yielded large extension products gave assurance that the DNA polymerase was active, and that termination products resulted from terminator incorporation rather than incomplete polymerization. Reactions with Therminator™ (NEB, Inc., Ipswich, Mass.) and 9° N exo-L408P/Y409A/S411T DNA polymerase were incubated at 72° C. for 30 minutes. Reactions with E. coli Polymerase I (pol I) (NEB, Inc., Ipswich, Mass.), Sequenase™ (USB, Inc., Cleveland, Ohio), Mma exo- and Mma exo-L417P/Y418A/S420T were conducted at 37° C. for 30 mintues. Therminator™ (NEB, Inc., Ipswich, Mass.) DNA polymerase was assayed with a 1:1 ratio of acyCTP as control.

modified nucleotide = experiment: Screen of DNA polymerase mutants for modified nucleotide incorporation; format: biochemical
From the text: In order to determine the extent of 3′-modified nucleotide incorporation by archaeon DNA polymerases, the titration assay described by Gardner and Jack (2002) was used. In this assay, the efficiency of incorporation of chain terminators was judged by the size of the reaction products in a polymerization reaction. As the efficiency of chain-terminator incorporation increased, the average reaction product size decreased because polymerization was more often halted by terminator addition. By comparing the amount of terminator required to give the same spectrum of reaction products, the relative efficiency of incorporation of the test compounds with the different polymerases was determined.
A complex library of 9° N DNA polymerase mutants was screened for enhanced incorporation of 3′-azido-ddCTP. Several classes of 9° N DNA polymerase mutants were identified with enhanced terminator incorporation. 9° N exo-L408S/Y409A/P410V (Therminator III™, NEB, Inc., Ipswich, Mass.) was purified and characterized in more detail. 9° N DNA polymerase single mutants P410V, L408S, and Y409A and double mutants L408S/P410V, L408S/Y409A, and Y409A/P410V were also purified for comparison. Purification and characterization of DNA polymerase mutants was as described in Gardner and Jack, Nucleic Acids Res. 27:2545-2553 (1999).
A library of 9° N DNA polymerase mutants was constructed by PCR amplification of the polymerase genes using gene-specific primers or codon optimization and gene synthesis Czar et al. Trends Biotechnol 27(2): 63-72 (2009)). The ability to incorporate 3′-modified nucleotide terminators was evaluated by the titration assay for chain terminator incorporation efficiency as described by Gardner and Jack (2002).
Furthermore, the same assay was used to measure 3′-amino-ddCTP incorporation by 9° N exo-L408S/Y409A/P410V (FIG. 3) and to measure rates of incorporation (FIG. 4). Examples of mutants that increased modified nucleotide incorporation by at least two-fold were: […]

[1] = 10:1 or 1:1 3′-O-azidomethyl-dCTP:dNTP, 30 minutes

| Molecule | 3′-O-azidomethyl-dCTP incorporation / termination of synthesis (3′-O-azidomethyl-dCTP; [1]) | increase of modified nucleotide incorporation (modified nucleotide) | effect of the mutations on 3′-O-azidomethyl-dCTP incorporation (3′-O-azidomethyl-dCTP; versus parent exo- polymerase) | relative 3′-O-azidomethyl-dCTP incorporation efficiency, rank order (3′-O-azidomethyl-dCTP; 10:1 or 1:1 3′-O-azidomethyl-dCTP:dNTP, 72° C. or 37° C., 30 minutes, FIG. 8) |
| --- | --- | --- | --- | --- |
| E. coli DNA polymerase I (pol I): commercial E. coli DNA polymerase I (NEB, Inc.) [reference compound] | failed to terminate synthesis | – | – | – |
| 9° N exo-L408P/Y409A/S411T: 9° N DNA polymerase mutant, SEQ ID NO:6 (protein, Thermococcus sp. 9 degrees N DNAP mutant) MILDTDYITENGKPVIRVFKKENGEFKIEYDRTFEPYFYALLKDDSAIEDVKKVTAKRHGTVVKVKRAEKVQKKFLGRPIEVWKLYFNHPQDVPAIRDRIRAHPAVVDIYEYDIPFAKRYLIDKGLIPMEGDEELTMLAFAIATLYHEGEEFGTGPILMISYADGSEARVITWKKIDLPYVDVVSTEKEMIKRFLRVVREKDPDVLITYNGDNFDFAYLKKRCEELGIKFTLGRDGSEPKIQRMGDRFAVEVKGRIHFDLYPVIRRTINLPTYTLEAVYEAVFGKPKEKVYAEEIAQAWESGEGLERVARYSMEDAKVTYELGREFFPMEAQLSRLIGQSLWDVSRSSTGNLVEWFLLRKAYKRNELAPNKPDERELARRRGGYAGGYVKEPERGLWDNIVYLDFRSPAPTIIITHNVSPDTLNREGCKEYDVAPEVGHKFCKDFPGFIPSLLGDLLEERQKIKRKMKATVDPLEKKLLDYRQRAIKILANSFYGYYGYAKARWYCKECAESVTAWGREYIEMVIRELEEKFGFKVLYADTDGLHATIPGADAETVKKKAKEFLKYINPKLPGLLELEYEGFYVRGFFVTKKKYAVIDEEGKITTRGLEIVRRDWSEIAKETQARVLEAILKHGDVEEAVRIVKEVTEKLSKYEVPPEKLVIHEQITRDLRDYKATGPHVAVAKRLAARGVKIRPGTVISYIVLKGSGRIGDRAIPADEFDPTKHRYDAEYYIENQVLPAVERILKAFGYRKEDLRYQKTKQVGLGAWLKVKGKK | incorporated 3′-O-azidomethyl-dCTP efficiently | at least two-fold | increased 3′-O-azidomethyl-dCTP incorporation | – |
| 9° N D141A/E143A/N491L/Y494S: 9° N DNA polymerase mutant (protein, UniProt Q56366 1-775, looked up, variant D141A E143A N491L Y494S) DNA polymerase: MILDTDYITENGKPVIRVFKKENGEFKIEYDRTFEPYFYALLKDDSAIEDVKKVTAKRHGTVVKVKRAEKVQKKFLGRPIEVWKLYFNHPQDVPAIRDRIRAHPAVVDIYEYDIPFAKRYLIDKGLIPMEGDEELTMLAFAIATLYHEGEEFGTGPILMISYADGSEARVITWKKIDLPYVDVVSTEKEMIKRFLRVVREKDPDVLITYNGDNFDFAYLKKRCEELGIKFTLGRDGSEPKIQRMGDRFAVEVKGRIHFDLYPVIRRTINLPTYTLEAVYEAVFGKPKEKVYAEEIAQAWESGEGLERVARYSMEDAKVTYELGREFFPMEAQLSRLIGQSLWDVSRSSTGNLVEWFLLRKAYKRNELAPNKPDERELARRRGGYAGGYVKEPERGLWDNIVYLDFRSLYPSIIITHNVSPDTLNREGCKEYDVAPEVGHKFCKDFPGFIPSLLGDLLEERQKIKRKMKATVDPLEKKLLDYRQRAIKILALSFSGYYGYAKARWYCKECAESVTAWGREYIEMVIRELEEKFGFKVLYADTDGLHATIPGADAETVKKKAKEFLKYINPKLPGLLELEYEGFYVRGFFVTKKKYAVIDEEGKITTRGLEIVRRDWSEIAKETQARVLEAILKHGDVEEAVRIVKEVTEKLSKYEVPPEKLVIHEQITRDLRDYKATGPHVAVAKRLAARGVKIRPGTVISYIVLKGSGRIGDRAIPADEFDPTKHRYDAEYYIENQVLPAVERILKAFGYRKEDLRYQKTKQVGLGAWLKVKGKK | – | at least two-fold | – | – |
| 9° N D141A/E143A/L408P/Y409A/P410V/S411T: 9° N DNA polymerase mutant (protein, UniProt Q56366 1-775, looked up, variant D141A E143A L408P Y409A P410V S411T) DNA polymerase: MILDTDYITENGKPVIRVFKKENGEFKIEYDRTFEPYFYALLKDDSAIEDVKKVTAKRHGTVVKVKRAEKVQKKFLGRPIEVWKLYFNHPQDVPAIRDRIRAHPAVVDIYEYDIPFAKRYLIDKGLIPMEGDEELTMLAFAIATLYHEGEEFGTGPILMISYADGSEARVITWKKIDLPYVDVVSTEKEMIKRFLRVVREKDPDVLITYNGDNFDFAYLKKRCEELGIKFTLGRDGSEPKIQRMGDRFAVEVKGRIHFDLYPVIRRTINLPTYTLEAVYEAVFGKPKEKVYAEEIAQAWESGEGLERVARYSMEDAKVTYELGREFFPMEAQLSRLIGQSLWDVSRSSTGNLVEWFLLRKAYKRNELAPNKPDERELARRRGGYAGGYVKEPERGLWDNIVYLDFRSPAVTIIITHNVSPDTLNREGCKEYDVAPEVGHKFCKDFPGFIPSLLGDLLEERQKIKRKMKATVDPLEKKLLDYRQRAIKILANSFYGYYGYAKARWYCKECAESVTAWGREYIEMVIRELEEKFGFKVLYADTDGLHATIPGADAETVKKKAKEFLKYINPKLPGLLELEYEGFYVRGFFVTKKKYAVIDEEGKITTRGLEIVRRDWSEIAKETQARVLEAILKHGDVEEAVRIVKEVTEKLSKYEVPPEKLVIHEQITRDLRDYKATGPHVAVAKRLAARGVKIRPGTVISYIVLKGSGRIGDRAIPADEFDPTKHRYDAEYYIENQVLPAVERILKAFGYRKEDLRYQKTKQVGLGAWLKVKGKK | – | at least two-fold | – | – |
| Mma exo-: exonuclease minus DNA polymerase from Methanococcus maripaludis, SEQ ID NO:22 (protein, listed as Methanococcus maripaludis, (1)..(784) Exo-) MESLIDLDYNSDDLCIYLYLINSIIKEKDFKPYFYVNSTDKEQILEFLKDYEKKHKLDSEISKMIENIETVKKIVFDENYQEKELSKVTVKYPNNVKTVREILMEFERLYEYDIPFVRRYLIDNSVIPTSTWDFENNKKIDNKIPDFKTVSFAIAVYCNKEPNPKKDPIIMASFSSKDFNTVVSTKKFDHEKLEYVKDEKELIKRIIEILKEYDIIYTYNGDNFDFPYLKKRAESFGLELKLGKNDEKIKITKGGMNSKSYIPGRVHIDLYPIARRLLNLTKYRLENVTEALFDVKKVDVGHENIPKMWDNLDETLVEYSHQDAYYTQRIGEQFLPLEIMFSRVVNQSLYDINRMSSSQMVEYLLLKNSYKMGVIAPNRPSGKEYQKRIRSSYEGGYVKEPLKGIHEDIVSMDFLSLYPSIIMSHNLSPETIDCTCCSDEENGENEEILGHKFCKKSIGIIPKTLMDLINRRKKVKKVLREKAEKGEFDEEYQILDYEQRSIKVLANSHYGYLAFPMARWYSRDCAEITTHLGRQYIQKTIEEAENFGFKVIYADTDGFYSKWADDKEKLSKYELLEKTREFLKNINNTLPGEMELEFEGYFKRGIFVTKKKYALIDENEKITVKGLEVVRRDWSNVSKNTQKNVLNALLKEGSVENAKKVIQDTIKELKDGKVNNEDLLIHTQLTKRIEDYKTTAPHVEVAKKILKSGNRVNTGDVISYIITSGNKSISERAEILENAKNYDTNYYIENQILPPVIRLMEALGITKDELKDSKKQYTLHHFLK | failed to terminate synthesis | – | – | greater than Sequenase™ |
